Assay results taken from US20150093758.

How the values were obtained:
[1] = test system: PSA anchor ligand biotin-PEG5-cyclic(CVFAHNYDYLVC)
[2] = test system: PSA capture agent biligand biotin-PEG5-cyclic(CVFAHNYDYLVC)-Tz5-Gllffk

“human prostate specific antigen (free PSA, Scripps Laboratories #P0725)” was tested, and the enzyme activity of PSA against the chromogenic substrate Suc-Arg-Pro-Tyr-pNA (absorbance at 405 nm) [1] was 3 fold and the enzyme activity of PSA against the chromogenic substrate Suc-Arg-Pro-Tyr-pNA (absorbance at 405 nm) [2] was 3 fold.
